Test results: article PMC6323846, “Comprehensive investigation of the gene expression system regulated by an Aspergillus oryzae transcription factor XlnR using integrated mining of gSELEX-Seq and microarray data”

T1: MBP-AoXlnR (MBP-XlnR1-183) (Aspergillus oryzae (strain not given for the expression construct; RIB40 used for genomic DNA)) (UniProt Q2UD93)
T1 sequence: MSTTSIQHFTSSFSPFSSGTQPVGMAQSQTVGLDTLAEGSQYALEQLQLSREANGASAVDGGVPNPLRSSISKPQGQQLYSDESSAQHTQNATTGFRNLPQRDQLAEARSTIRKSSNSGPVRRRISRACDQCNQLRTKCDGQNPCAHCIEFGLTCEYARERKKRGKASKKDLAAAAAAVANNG

T2: MBP-AoXlnR (MBP-XlnR1-183) (Aspergillus oryzae (strain  …, UniProt Q2UD93 1-183))
T2 sequence: T1 sequence

B1: abf-687 (abf-680 in Table S1) (dsDNA)
DNA 1: GCAGAAGCTCTTGCAGATCTGTCGGCTGAAGGTTTGTTTTAGGCCAAATGCCTTTTTTTTTTTTTTTTTT
DNA 2: AAAAAAAAAAAAAAAAAAGGCATTTGGCCTAAAACAAACCTTCAGCCGACAGATCTGCAAGAGCTTCTGC
B2: egl-617 (dsDNA)
DNA 1: GCAGCGGCGAAAGGTGCAGGATGGCTGACGCTCAGTTTAATGAGCAGTGGCCTTTTTTTTTTTTTTTTTT
DNA 2: AAAAAAAAAAAAAAAAAAGGCCACTGCTCATTAAACTGAGCGTCAGCCATCCTGCACCTTTCGCCGCTGC
B3: egl-242 (dsDNA)
DNA 1: GGAGACTCCTCTCATCTTGCTGGGCTGAAGACTCGGTCAATACCATGATACCTTTTTTTTTTTTTTTTTT
DNA 2: AAAAAAAAAAAAAAAAAAGGTATCATGGTATTGACCGAGTCTTCAGCCCAGCAAGATGAGAGGAGTCTCC
B4: egl-363 (dsDNA)
DNA 1: CAACCCGAGGGTCGATCGACTCCGGCATTAGCTGCCCAGCAGGTATACAGCCTTTTTTTTTTTTTTTTTT
DNA 2: AAAAAAAAAAAAAAAAAAGGCTGTATACCTGCTGGGCAGCTAATGCCGGAGTCGATCGACCCTCGGGTTG
B5: abf-830 (abf-837 in Table S1) (dsDNA)
DNA 1: TTAAACACATGAGACACACTCGCGGCTGAATGGTTTCGGGTTTTAGCCGGCCTTTTTTTTTTTTTTTTTT
DNA 2: AAAAAAAAAAAAAAAAAAGGCCGGCTAAAACCCGAAACCATTCAGCCGCGAGTGTGTCTCATGTGTTTAA

Molecular target: T1, MBP-AoXlnR (MBP-XlnR1-183) (Aspergillus oryzae (strain not given for the expression construct; RIB40 used for genomic DNA))
Assay: BLI
Conditions: BLI (BLItz, streptavidin sensors), Kinetics Buffer 10x (Pall-ForteBio; composition and pH not stated), room temperature, DNA immobilized, 1:1 global fit

How did the Kd turn out when “GGAATTCGGGGTATTAGGCTAAACGTGGCTATCATGGTGAAACAGGCTGAAGAACAGTTCCTGGCAGGTCAAATGGGAATCTAGAGC (double strand) [XRE-WT]” was run?
Its Kd is 656 nM.

Which Kd does the source give for XRE-WT here?
The Kd was 656 nM.

“CCAGCCAACCTTCAGCTCAGCAATGCATGCCTTTTTCCCTTTTACCCATTTACCCAGGAATAATGGCATCCTCAGGGTTTCAGCATCTGCT (double strand) [xynF1_upstream_1]” was tested. Which Kd did it give?
The Kd was 311 nM.

Molecular target: T2, MBP-AoXlnR (MBP-XlnR1-183)
Assay: BLI; BLI (BLItz, streptavidin sensors), Kinetics Buffer 10x (Pall-ForteBio; composition and pH not stated), room temperature, DNA immobilized, 1:1 global fit
Conditions: protein: recombinant; label: 5' biotin on bio-polyA strand (complement of strand 1, S14 extended); blunt

B1 was tested. Which Kd did it give?
Its Kd is 133 nM.

For B2, which Kd is on record?
Its Kd is 48.4 nM.

With B3 as the molecule, how does the Kd read?
The Kd was 40.6 nM.

With B4 as the molecule, how does the Kd read?
The Kd was 68.7 nM.

With B5 as the molecule, how does the Kd read?
Its Kd is 144 nM.
